Assay results: patent US20260015399A1 (Boehringer Ingelheim, published 2026)
*1 amine or outer side, *2 acyl side, *3 side chain or, on linkers, in order; H or OH if unused. Side-chain parts run from the residue outwards. The star is where a group is joined. C18 diacid = O=C(O)CCCCCCCCCCCCCCCCC(=O)*; γGlu = O=C(O)[C@H](CCC(=O)[*:2])N[*:1]; Isovaleryl = CC(C)CC(=O)*; Ahx = NCCCCCC(=O)O

Target: T1, human NPY2 receptor (human, UniProt P49146 1-381)
T1 construct: whole, on cells; also called hNPY2-R; hNPY2R
T1 sequence (looked up): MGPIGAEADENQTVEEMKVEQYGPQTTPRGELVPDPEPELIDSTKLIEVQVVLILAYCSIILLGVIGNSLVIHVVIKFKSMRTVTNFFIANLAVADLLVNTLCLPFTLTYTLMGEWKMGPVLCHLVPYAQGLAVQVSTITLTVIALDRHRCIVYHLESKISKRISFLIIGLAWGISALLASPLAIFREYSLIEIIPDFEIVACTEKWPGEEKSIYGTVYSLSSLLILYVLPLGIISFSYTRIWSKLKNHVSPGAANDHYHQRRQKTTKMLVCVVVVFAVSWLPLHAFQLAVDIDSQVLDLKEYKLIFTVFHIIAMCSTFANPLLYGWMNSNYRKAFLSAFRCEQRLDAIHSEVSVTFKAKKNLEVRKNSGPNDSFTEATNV
Assay: RLB: displacement of 125I-PYY(1-36) from hNPY2R membranes

B1: Compound 131 (peptide)
peptide: Isovaleryl-APEK([Ahx-γGlu-C18 diacid])PEADAEPEEIQRYYVALRHYYNWLTRQRY-NH2
SMILES: CC[C@H](C)[C@H](NC(=O)[C@H](CCC(=O)O)NC(=O)[C@H](CCC(=O)O)NC(=O)[C@@H]1CCCN1C(=O)[C@H](CCC(=O)O)NC(=O)[C@H](C)NC(=O)[C@H](CC(=O)O)NC(=O)[C@H](C)NC(=O)[C@H](CCC(=O)O)NC(=O)[C@@H]1CCCN1C(=O)[C@H](CCCCNC(=O)CCCCCNC(=O)CC[C@H](NC(=O)CCCCCCCCCCCCCCCCC(=O)O)C(=O)O)NC(=O)[C@H](CCC(=O)O)NC(=O)[C@@H]1CCCN1C(=O)[C@H](C)NC(=O)CC(C)C)C(=O)N[C@@H](CCC(N)=O)C(=O)N[C@@H](CCCNC(=N)N)C(=O)N[C@@H](Cc1ccc(O)cc1)C(=O)N[C@@H](Cc1ccc(O)cc1)C(=O)N[C@H](C(=O)N[C@@H](C)C(=O)N[C@@H](CC(C)C)C(=O)N[C@@H](CCCNC(=N)N)C(=O)N[C@@H](Cc1c[nH]cn1)C(=O)N[C@@H](Cc1ccc(O)cc1)C(=O)N[C@@H](Cc1ccc(O)cc1)C(=O)N[C@@H](CC(N)=O)C(=O)N[C@@H](Cc1c[nH]c2ccccc12)C(=O)N[C@@H](CC(C)C)C(=O)N[C@H](C(=O)N[C@@H](CCCNC(=N)N)C(=O)N[C@@H](CCC(N)=O)C(=O)N[C@@H](CCCNC(=N)N)C(=O)N[C@@H](Cc1ccc(O)cc1)C(N)=O)[C@@H](C)O)C(C)C
Ki: 1.54 nM

B2: Compound 132 (peptide)
peptide: Isovaleryl-APEK([Ahx-γGlu-C18 diacid])PEADATPEELQRYYVSLRHYYNWLTRQRY-NH2
SMILES: CC(C)CC(=O)N[C@@H](C)C(=O)N1CCC[C@H]1C(=O)N[C@@H](CCC(=O)O)C(=O)N[C@@H](CCCCNC(=O)CCCCCNC(=O)CC[C@H](NC(=O)CCCCCCCCCCCCCCCCC(=O)O)C(=O)O)C(=O)N1CCC[C@H]1C(=O)N[C@@H](CCC(=O)O)C(=O)N[C@@H](C)C(=O)N[C@@H](CC(=O)O)C(=O)N[C@@H](C)C(=O)N[C@H](C(=O)N1CCC[C@H]1C(=O)N[C@@H](CCC(=O)O)C(=O)N[C@@H](CCC(=O)O)C(=O)N[C@@H](CC(C)C)C(=O)N[C@@H](CCC(N)=O)C(=O)N[C@@H](CCCNC(=N)N)C(=O)N[C@@H](Cc1ccc(O)cc1)C(=O)N[C@@H](Cc1ccc(O)cc1)C(=O)N[C@H](C(=O)N[C@@H](CO)C(=O)N[C@@H](CC(C)C)C(=O)N[C@@H](CCCNC(=N)N)C(=O)N[C@@H](Cc1c[nH]cn1)C(=O)N[C@@H](Cc1ccc(O)cc1)C(=O)N[C@@H](Cc1ccc(O)cc1)C(=O)N[C@@H](CC(N)=O)C(=O)N[C@@H](Cc1c[nH]c2ccccc12)C(=O)N[C@@H](CC(C)C)C(=O)N[C@H](C(=O)N[C@@H](CCCNC(=N)N)C(=O)N[C@@H](CCC(N)=O)C(=O)N[C@@H](CCCNC(=N)N)C(=O)N[C@@H](Cc1ccc(O)cc1)C(N)=O)[C@@H](C)O)C(C)C)[C@@H](C)O
Ki: 2.75 nM
